Test results: patent US10538591B2, “Anti-fibulin-3 antibodies and uses thereof” (THE BRIGHAM AND WOMEN'S HOSPITAL, INC., priority 2014, dated 2020)
“And” between values parts separate entries of the source, which are not always exact repeats. Equal entries are not always repeated.

Tests used:
fibulin-5 = molecular target: T1, fibulin-5 (Homo sapiens, UniProt Q9UBX5); assay: Cross-reactivity against homologous fibulin-5; assay type: binding
T1 sequence (Q9UBX5 24-448): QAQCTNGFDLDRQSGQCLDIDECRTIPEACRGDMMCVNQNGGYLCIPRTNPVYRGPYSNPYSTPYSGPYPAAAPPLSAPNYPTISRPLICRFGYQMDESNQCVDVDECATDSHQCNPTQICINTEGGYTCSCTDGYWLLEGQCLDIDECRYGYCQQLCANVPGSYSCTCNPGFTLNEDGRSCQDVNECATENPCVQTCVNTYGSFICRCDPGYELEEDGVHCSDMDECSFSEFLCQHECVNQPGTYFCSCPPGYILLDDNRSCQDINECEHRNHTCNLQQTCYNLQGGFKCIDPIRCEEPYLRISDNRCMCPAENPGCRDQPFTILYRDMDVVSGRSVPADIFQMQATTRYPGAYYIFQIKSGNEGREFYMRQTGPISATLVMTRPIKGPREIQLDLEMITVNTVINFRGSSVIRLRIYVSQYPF

normal adult human brain = assay: Immunohistochemistry of normal adult human brain sections; settings: anti-Fib3/911 10 μg/ml, mAb428.3C11 40 μg/ml, mAb3-5 5 μg/ml
Procedure: Frozen sections of human primary glioblastoma and normal adult human brain were fixed in ethanol/acetate buffer and processed for immunohistochemistry with the following anti-fibulin-3 antibodies: rabbit polyclonal anti-Fib3/911 (10 μg/ml), mouse monoclonal anti-fibulin-3 mAb428.3C11 (40 μg/ml), and a commercial mouse monoclonal antibody against human fibulin-3 (mAb3-5, 5 μg/ml, Santa Cruz Biotechnology). […] Both in-house generated antibodies show stronger staining in the tumor parenchyma compared to the commercial antibody. In all cases, staining is particularly intense around tumor blood vessels. […] Sections were counterstained to identify endothelial markers and cell nuclei by staining with anti-CD31 and DAPI respectively. (Data not shown).

fibulin-4 = molecular target: T2, fibulin-4 (Homo sapiens, UniProt O95967); assay: Cross-reactivity against homologous fibulin-4; assay type: binding
T2 sequence (O95967 24-443): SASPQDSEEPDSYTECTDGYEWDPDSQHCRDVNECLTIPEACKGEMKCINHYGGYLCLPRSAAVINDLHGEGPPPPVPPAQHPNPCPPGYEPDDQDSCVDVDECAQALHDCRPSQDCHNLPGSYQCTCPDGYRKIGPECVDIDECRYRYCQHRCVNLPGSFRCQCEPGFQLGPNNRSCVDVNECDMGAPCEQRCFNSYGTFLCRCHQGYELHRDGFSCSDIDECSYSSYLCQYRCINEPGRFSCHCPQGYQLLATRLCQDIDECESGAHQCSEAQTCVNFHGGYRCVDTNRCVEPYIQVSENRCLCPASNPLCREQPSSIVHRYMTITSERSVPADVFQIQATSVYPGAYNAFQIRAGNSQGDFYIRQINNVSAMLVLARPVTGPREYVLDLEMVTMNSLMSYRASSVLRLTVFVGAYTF

[1] = Acute toxicity, single IV injection dose-escalation; assay type: in vivo, athymic mice; set-up: Endpoint weight / Endpoint weight Average: unit not given here; Pre-inject weight / Pre-inject weight Average: unit: g; settings: for Endpoint weight Average / Pre-inject weight Average: group average; for Endpoint weight / Pre-inject weight: individual mouse
Procedure: Table 2 summarizes the results of acute toxicity assays for mAb428.2 injected intravenously (IV) into mice. A dose-escalation study was performed with athymic mice that received a single IV injection of mAb428.2 (purified in low-endotoxin conditions). Doses ranged from 0.1 to 30 mg/kg and mice were observed (and weighed) for periods ranging from 15 minutes to 14 days after injection. Mice were perfused with 4% paraformaldehyde and several organs were recovered, processed for histochemistry and analyzed by a specialist in rodent histopathology. Note that recovered organs and tissues for FFPE+H&E processing were: cerebrum, cerebellum, eyes, liver, kidney, skin, forepaws (to assess connective tissue). This study was performed independently at the Beth Israel Deaconess Medical Center Preclinical Murine Pharmacogenomics Core and tissues were evaluated at the Dana-Farber/Harvard Cancer Center Rodent Histopathology Core.

[2] = tested on: Notch signaling induced by fibulin-3; assay: Notch reporter in ARPE19 retinal pigmented epithelial cells; assay type: cell-based, human; settings: 100 μg/ml, 0, 2, 4, 6 and 24 h
Procedure: Cells were co-transfected with plasmids carrying fibulin-3 cDNA (Fib3 OE) or a control cDNA (Control) and incubated in serum-free conditions for 24 h (FIG. 18). The following day mAb428.3C11 (100 μg/ml) was added to the cultures and Notch (left panel) or NF-kB (right panel) signaling activities were measured after 0, 2, 4, 6, and 24 h. […] The inhibitory effect caused by the antibody on control reporter signaling (black dots) may have been caused by blocking of endogenous fibulin-3 that is highly expressed by ARPE19 cells.

[3] = 0.1 mg/kg IV, 15 min after injection
[4] = 0.1 mg/kg IV, 24 h after injection
[5] = 0.1 mg/kg IV, 4 days after injection
[6] = 0.1 mg/kg IV, 14 days after injection
[7] = 1 mg/kg IV, 15 min after injection
[8] = 1 mg/kg IV, 24 h after injection
[9] = 1 mg/kg IV, 4 days after injection
[10] = 1 mg/kg IV, 14 days after injection
[11] = 10 mg/kg IV, 15 min after injection
[12] = 10 mg/kg IV, 24 h after injection
[13] = 10 mg/kg IV, 4 days after injection
[14] = 10 mg/kg IV, 14 days after injection
[15] = 30 mg/kg IV, 24 h after injection
[16] = 30 mg/kg IV, 4 days after injection
[17] = 30 mg/kg IV, 14 days after injection
[18] = single IV injection 0.1 to 30 mg/kg, 15 minutes to 14 days

B1: mAb428.2: mouse monoclonal IgG1 kappa antibody against human fibulin-3 peptide SEQ ID NO:2; VH SEQ ID NO: 3, VL SEQ ID NO: 4 (antibody, V domains shown)
VH: QIQLVQSGPELKKPGETVKISCKASGYSFTTYGMSWVKQAPGKGLKWMGWINTYSGVPTYADDFKGRFAFFLETSASTAYLQINNLKNEDTATYFCARWVDYWGQGTTLTVSS
VL: DIKMTQSPSSMYASLGERVTITCKASQDIKSYLSWHQQKPWKSPKTLIYYATSLADGVPSRFSGSGSGQDYSLTISSLESDDTATYYCLQHGKSPYTFGGGTKLEIK
- cross-reactivity against fibulin-5 (fibulin-5): no cross-reactivity
- staining in normal brain (normal adult human brain): without cross-reactivity against normal brain
- staining in normal brain (normal adult human brain; listed as mAb428.3C11): complete absence of staining in normal tissue
- cross-reactivity against fibulin-4 (fibulin-4): no cross-reactivity
- Endpoint weight Average [1, 3]: 24.27
- Endpoint weight [1, 3]: 24.80 and 25.60 and 22.40
- Endpoint weight Average [1, 4]: 25.27
- Endpoint weight [1, 4]: 25.40 and 26.50 and 23.90
- Endpoint weight Average [1, 5]: 24.53
- Endpoint weight [1, 5]: 25.20 and 24.00 and 24.40
- Endpoint weight Average [1, 6]: 23.93
- Endpoint weight [1, 6]: 25.20 and 24.90 and 21.70
- Pre-inject weight Average ([1]; 0.1 mg/kg IV, endpoint 15 min): 23.95
- Pre-inject weight ([1]; 0.1 mg/kg IV, endpoint 15 min, measured the day before injection): 21.60 and 26.30 and 19.7 (*)
- Pre-inject weight Average ([1]; 0.1 mg/kg IV, endpoint 24 h): 24.93
- Pre-inject weight ([1]; 0.1 mg/kg IV, endpoint 24 h): 25.10 and 26.30 and 23.40
- Pre-inject weight Average ([1]; 0.1 mg/kg IV, endpoint 4 days): 24.93
- Pre-inject weight ([1]; 0.1 mg/kg IV, endpoint 4 days): 25.10 and 24.80 and 24.90
- Pre-inject weight Average ([1]; 0.1 mg/kg IV, endpoint 14 days): 22.40
- Pre-inject weight ([1]; 0.1 mg/kg IV, endpoint 14 days): 24.10 and 24.70 and 18.40
- Endpoint weight Average [1, 7]: 24.40
- Endpoint weight [1, 7]: 25.20 and 24.00 (2×)
- Endpoint weight Average [1, 8]: 26.30
- Endpoint weight [1, 8]: 25.80 and 26.30 and 26.80
- Endpoint weight Average [1, 9]: 23.93
- Endpoint weight [1, 9]: 25.00 and 22.80 and 24.00
- Endpoint weight Average [1, 10]: 24.37
- Endpoint weight [1, 10]: 24.60 and 24.00 and 24.50
- Pre-inject weight Average ([1]; 1 mg/kg IV, endpoint 15 min): 24.77
- Pre-inject weight ([1]; 1 mg/kg IV, endpoint 15 min, measured the day before injection): 25.30 and 24.60 and 24.40
- Pre-inject weight Average ([1]; 1 mg/kg IV, endpoint 24 h): 26.13
- Pre-inject weight ([1]; 1 mg/kg IV, endpoint 24 h): 25.80 and 25.90 and 26.70
- Pre-inject weight Average ([1]; 1 mg/kg IV, endpoint 4 days): 24.23
- Pre-inject weight ([1]; 1 mg/kg IV, endpoint 4 days): 25.30 and 22.80 and 24.60
- Pre-inject weight Average ([1]; 1 mg/kg IV, endpoint 14 days): 24.30
- Pre-inject weight ([1]; 1 mg/kg IV, endpoint 14 days): 24.60 and 23.80 and 24.50
- Endpoint weight Average [1, 11]: 23.60
- Endpoint weight [1, 11]: 23.50 and 22.90 and 24.40
- Endpoint weight Average [1, 12]: 26.47
- Endpoint weight [1, 12]: 26.30 and 25.60 and 27.50
- Endpoint weight Average [1, 13]: 24.00
- Endpoint weight [1, 13]: 24.70 and 23.60 and 23.70
- Endpoint weight Average [1, 14]: 25.30
- Endpoint weight [1, 14]: 25.10 and 24.80 and 26.00
- Pre-inject weight Average ([1]; 10 mg/kg IV, endpoint 15 min): 23.60
- Pre-inject weight ([1]; 10 mg/kg IV, endpoint 15 min, measured the day before injection): 23.60 and 23.20 and 24.00
- Pre-inject weight Average ([1]; 10 mg/kg IV, endpoint 24 h): 26.00
- Pre-inject weight ([1]; 10 mg/kg IV, endpoint 24 h): 26.20 and 25.00 and 26.80
- Pre-inject weight Average ([1]; 10 mg/kg IV, endpoint 4 days): 24.03
- Pre-inject weight ([1]; 10 mg/kg IV, endpoint 4 days): 24.70 and 24.00 and 23.40
- Pre-inject weight Average ([1]; 10 mg/kg IV, endpoint 14 days): 24.90
- Pre-inject weight ([1]; 10 mg/kg IV, endpoint 14 days): 24.60 and 24.40 and 25.70
- Endpoint weight Average [1, 15]: 26.40
- Endpoint weight [1, 15]: 27.40 and 26.30 and 25.50
- Endpoint weight Average [1, 16]: 24.70
- Endpoint weight [1, 16]: 25.20 and 26.30 and 22.60
- Endpoint weight Average [1, 17]: 23.70
- Endpoint weight [1, 17]: 25.50 and 23.70 and 21.90
- Pre-inject weight Average ([1]; 30 mg/kg IV, endpoint 24 h): 26.20
- Pre-inject weight ([1]; 30 mg/kg IV, endpoint 24 h): 27.40 and 26.10 and 25.10
- Pre-inject weight Average ([1]; 30 mg/kg IV, endpoint 4 days): 23.73
- Pre-inject weight ([1]; 30 mg/kg IV, endpoint 4 days): 24.00 and 25.30 and 21.90
- Pre-inject weight Average ([1]; 30 mg/kg IV, endpoint 14 days): 22.90
- Pre-inject weight ([1]; 30 mg/kg IV, endpoint 14 days): 24.20 and 23.20 and 21.30
- maximum tolerated dose before causing toxicity (MTD) ([1]; single IV injection): > 30 mg/kg
- histopathology in tissues stained by H&E ([1]; single IV injection 0.1 to 30 mg/kg): no evidence of histopathology
- adverse effects [1, 18]: no adverse effects after injection
- weight loss [1, 18]: no weight loss
- effect on fibulin-3-induced Notch reporter activity [2]: strong blocking effect
